Measurements as given in paper PMC10460880, “Cathepsin K‐Activated Probe for Fluoro‐Photoacoustic Imaging of Early Osteolytic Metastasis” (Advanced Science, 2023).

Key:
[1] = Bone marrow toxicity analysis (blood RBC and WBC counts); type: in vivo, BALB/c nude mice; settings: i.v. 50 μM, 200 μL; blood 24 h post-injection; n = 3
Method: Bone marrow toxicity analysis. The bone marrow toxicity of CTSK-APPA and CTSK-APP was assessed by blood analyses in mice. SPF grade 4-week-old BALB/c nude mice were intravenously injected with CTSK-APPA(50 μM, 200 μL) or saline (200 μL). The blood samples were collected in anticoagulant tubes at 24 h post-injection and stored at 4°C. The red blood count (RBC) and white blood count (WBC) were further measured.
Renal clearance efficiency studies. SPF grade 4-week-old BALB/c nude mice were intravenously injected with CTSK-APPA or CTSK-APP (50 μM, 200 μL) and placed in metabolic cages. The urine was collected at 3, 6, and 24 h post-injection, and then centrifuged at 5000 r.p.m. for 5 min. The supernatants containing excreted probes were quantified by using a UV-vis absorption spectrometer. […]
In vivo Bioluminescence, DR, CT, and MR imaging. […] Then BL imaging was recorded on an IVIS Spectrum imaging system at 10 min post-injection under anesthesia using isoflurane. All data were analyzed with the Living Image software. DR, CT, and MR imaging were recorded on an IVIS Spectrum imaging system, a single-photon emission computed tomography imaging system, and a preclinical magnetic resonance solution system, respectively.
Real-time tumor imaging. […] Fluorescence and PA images were acquired at 0, 1, 2, 4, 8, 12, and 24 h post-injection. […]
Histology. […] Images were captured by using a fluorescence microscope. […]

[2] = tested on: CTSK + 2-CP; CTSB, FAP-α, Casp-3, APN, GGT, ALP, ACE, trypsin; test: Selectivity study: fluorescence activation with inhibited CTSK or other proteases; type: biochemical; settings: probe 10 μM, 1 h; 2-CP 50 mM pre-treatment 30 min; n = 3
Method: In vitro analysis of cathepsin K (CTSK) activation, selectivity, and sensitivity studies.
Probe CTSK-APPA, D-CTSK-APPA, or CTSK-APP (10 μM) was incubated with CTSK in MES buffer (50 mM, pH 6.0) containing 0.1% DMSO, 2 mM ethylene diamine tetraacetic acid (EDTA), 4 mM dithiothreitol (DTT) and 0.15% chondroitin sulfate (CS) at 37 °C for 1 h. After incubation at the indicated time, UV-Vis spectra, fluorescence spectra, fluorescence images, and PA images of the solutions were recorded. Probe CyP (10 μM) incubated with CTSK (200 ng/mL) for 1 h was further analyzed by HPLC. For selectivity study, CTSK-APPA (10 μM) in a 96-well plate was incubated with CTSK (100 ng/mL), CTSB (100 ng/mL), FAP-α (9×10-4 U/mL), Caspase-3 (100 ng/mL), APN (100 ng/mL), GGT (0.1 U/mL), ALP (0.1 U/mL), ACE (1×10-3 U/mL), and trypsin (10 U/L) at […] for 1 h. For the inhibitory experiment, CTSK (100 ng/mL) was treated with CTSK inhibitor 2-Cyanopyrimidine (2-CP, 50 mM) at 37°C for 30 min. […]
Kinetic assay. […] Fluorescence intensities of solution were measured for quantification analyses by a microplate reader (BioTek, Synergy 2) with excitation at 690 nm and emission at 720 nm. The kinetic parameters were calculated according to the Michaelis-Menten equation shown below: V = Vmax×[S]/(Km + [S]), where V is initial velocity, and [S] is substrate concentration. […]

**Q.** Which results are given for Cbz‐Leu‐Arg‐OH [CTSK-APPA]?
**A.** red blood cell (RBC) and white blood cell (WBC) counts vs saline group [1]: No apparent differences; fluorescence activation at 720 nm by CTSK with inhibitor 2-CP or by other proteases [2]: almost no fluorescence activation
